{"source": "paper PMC4135724", "about": "(Nature, 2014)", "proteins": {"B1": {"name": "Human E-Syt2 (residues 163-634), fragment comprising the SMP, C2A and C2B domains (domain or fragment, UniProt A0FGR8 191-662, looked up)", "chain": "DTERAEWLNKTVKHMWPFICQFIEKLFRETIEPAVRGANTHLSTFSFTKVDVGQQPLRINGVKVYTENVDKRQIILDLQISFVGNCEIDLEIKRYFCRAGVKSIQIHGTMRVILEPLIGDMPLVGALSIFFLRKPLLEINWTGLTNLLDVPGLNGLSDTIILDIISNYLVLPNRITVPLVSEVQIAQLRFPVPKGVLRIHFIEAQDLQGKDTYLKGLVKGKSDPYGIIRVGNQIFQSRVIKENLSPKWNEVYEALVYEHPGQELEIELFDEDPDKDDFLGSLMIDLIEVEKERLLDEWFTLDEVPKGKLHLRLEWLTLMPNASNLDKVLTDIKADKDQANDGLSSALLILYLDSARNLPSGKKISSNPNPVVQMSVGHKAQESKIRYKTNEPVWEENFTFFIHNPKRQDLEVEVRDEQHQCSLGNLKVPLSQLLTSEDMTVSQRFQLSNSGPNSTIKMKIALRVLHLEKRER"}}, "target": "the molecule itself", "assay": "SEC"}
{"protein": "B1", "values": [{"measurement": "stoichiometry N", "result": 2}]}
